Test results as given in the nanobody polyreactivity screen of Harvey et al. (2022).

Test: yeast display, Sf9 membrane polyspecificity reagent, FACS + sequencing; frameworks hold sequencing errors
In short: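 After 36–48 hours of galactose induction, yeast (Saccharomyces cerevisiae BJ5465) displaying a synthetic nanobody library were stained at 4 °C for 1 hour with 10% biotinylated, detergent-solubilized Sf9 membrane reagent. Streptavidin microbeads enriched the stained cells before FACS sorting into low and high (top ~1%) gates on anti-HA and streptavidin fluorescence. Each clone's polyreactivity label reflects its gate of origin.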

Sequence | polyreactivity (PSR sort gate)
QVQLVESGGGLVQAGGSLRLSCAASGFIFRNYAMGWYRQAPGKERELVAAITGRGTYTYYADSVKGRFTISRDNAKNTVYLQMNSLKPEDTAVYYCAARSLALVYRKYDYWGQGTQVTVSS | high polyreactivity
QVQLVETGGGLVQAGGSLRLSSAASGIIFKTYAMGWYRQARGKERELLAGIDYSGGGTSYADSVKGRFTISRDNAKNTVYLQMNSLKPEDTAVYYCNAEWWSWGSDSYTYDYPETYDYRGQGTQVTVSS | low polyreactivity
QVQLVESGRGLVQAGGSLRLSCAASGSIFTSYVMGWYRQAPGKERELVAAISQTGSSTYYADSVKGRFTISRDNAKNTVYLQMNSLKPEDTAVYYFAARRSRGSVRNYDYWGQGTKVTVSS | high polyreactivity
QVQLQGSGGGLVQAGGSLRLSCAASGYIFQNVPMGWNRQAPGKERELVAGIDNGTSTNYADSVNGRFTISRDNAKNTVYLQMNSLNPVDTAVYYCAAAGQADDTLGYWGQGTQVTVSS | low polyreactivity
QVQHVESGGGSVQAGGRLRLSCAASGSTFIEYAMGWYRKAPGKERELVAGITTSSGRTSYADSVKGRFTISRDNAKNTVYLQMNSLKPEDTAVYYCAAKSYSDYDYWGQGTQVTVSS | low polyreactivity
QVQLVESGGGLVQAGGSLRLICAASGRIFVYNAKGSYSQAPGKDRELVATITSGGSTYYSDSVKGRFTISRDNAKNTVYFQMNSLKPEDTAVYYCAARRWYVHYFAYGYWGQGTQVTVSS | low polyreactivity
QVQLVESGGGLVQPGGSLRLSCAASGRIFIVNAMGWYRQAPGKERELVAAISRRGGSTYYADSVKGRFTISRDIAKNTVYLQMNSLKPEDTAVYYCNAVGGRYTGWRYDYWGQGTQVTVSS | high polyreactivity
QVQLLESGGGLVQAGGSLRLSGAASGRIFRWYAMGWYRQAPGKEREFVAAITSSGGSTYYADSVMGRFTISRDNAKNTVYLQMNSLKPDDTAGYYCAALVYLGGSYSRGYDWGQGTQVTVSS | high polyreactivity
QVQLVESGGGLVQEGGSLRLSCAASGRTFTTYAMGWYRQAPGKERELVAAISDTGGITYYADSVKGRFTISRDTAKNTVYIQMNSLKPEDTAVYYCNAESYGGDYDYWGQGTQVTVSS | low polyreactivity
QVQRVESGGGLVQAGGRLRLTCAASARIIRWYAMGWNRQAPGKERELVAAISGSGGSTYYADSVKGRFTISRDNAKNTVYLQMNSLKPEDTAVYYCAKDRDPVRAHDCWGQGTQVTVSS | high polyreactivity
QVQLVESGGGLVQAGGSLRLSCAASGYTFGWYAMGWYRQAPGKERELVAAITSDGSTYYADSVKGRFTISRDNEKNTVYLQMNSLIPVDTAVYYCAADATFDSDWGQGTQVTVSS | low polyreactivity
QVQLVESGGGLVQAGGSLRLSCAASGFTFYYYTMGWYRQAPVKERELVAGITSRGGSTTYADSVKARFTISLDNAKNTVYLQMNSLKPEDTAVYYCNPLWAVHSGYDYLGQGTQVTVSS | high polyreactivity
QVQLVESGGGLVQAGGSLRLSCAASGSIFVWNAMGWYRQAPGKERELVAAISYTDGSTYYADSVKGRFTISRDNAKNTVYLQMNSLKPEDTAVYYCAAAITPSYTGSEYDYWGQGTQVTVSS | low polyreactivity
QVQLVESGGGLVQAGGSLRLSCAASGLIFPVYVMGWYRQAPGKEREFVAAITWSTSTYYADSVKGRFTISRDNAKNTVYLQMNSLKPEDTAVYYCNARRGWYSPIYYYWGQGTQVTVSS | high polyreactivity
QVQLVESGGGLGQAGGSLRLSCAASGFTFRYYAMGWNRQAPGKERELVAAISASGGSTYYADSVKGRFTISRDNAKNTVYLQMNSLKPEDTAVYYCARYYAKMDYWGQGTQVTVSS | high polyreactivity
QVQLVESGGGLVQAGGSLRLSCAASGRTFRGYAMGWYRQAPGKERELVAAISSSGGRTYYADSVKGRFTISRDNAKNTVYLQMNSLKPEDTAVYYCAAAVTLSPAQYGYWGQGTQVTVSS | high polyreactivity
QVQLVESGGGLVQAGGSLRLSCAASGSIFIVNVMGWYRQAPGKERELVAGITTNGGITYYADSVKGRFTISRDNAKNTVYLQMNSLKPEDTAVYYCATRSASPSSIEMDYWGQGTQVTVSS | low polyreactivity
